The target in assay [1] is ChrF-His6, Mn superoxide dismutase ChrF of TnOtchr from Ochrobactrum tritici 5bvl1 (Ochrobactrum tritici 5bvl1). The assay can be described thus: cross-linking; 10 ug purified enzyme with 0.1 % glutaraldehyde in 20 mM NaCl, 10 mM KCl, 2 mM DTT, 20 mM Hepes pH 7.5; 5, 15 and 30 min at 30 °C; 12 % SDS-PAGE.
Assay [2] shares this target. The assay can be described thus: SEC; Superdex 200 10/300 GL, 0.5 mL/min, 50 mM Tris-HCl, 0.15 M NaCl, pH 7.4; mass from a curve of standard proteins.
The target of assay [3] is ChrC-His6, Fe superoxide dismutase ChrC of TnOtchr from Ochrobactrum tritici 5bvl1 (Ochrobactrum tritici 5bvl1). Kind of assay: cross-linking; 10 ug purified enzyme with 0.1 % glutaraldehyde in 20 mM NaCl, 10 mM KCl, 2 mM DTT, 20 mM Hepes pH 7.5; 5, 15 and 30 min at 30 °C; 12 % SDS-PAGE.
For assay [4] the target is unchanged. Kind of assay: SEC; Superdex 200 10/300 GL, 0.5 mL/min, 50 mM Tris-HCl, 0.15 M NaCl, pH 7.4; mass from a curve of standard proteins.

On to “ChrF-His6, Mn superoxide dismutase ChrF of TnOtchr from Ochrobactrum tritici 5bvl1 (enzyme)”, for which the stoichiometry N in assay [1] and in assay [2] was 2 in each case.

Regarding “ChrC-His6, Fe superoxide dismutase ChrC of TnOtchr from Ochrobactrum tritici 5bvl1 (enzyme)”, the stoichiometry N in assay [3] and in assay [4] was 4 each time.

The values above are taken from publication PMC4779226.
